For series [1] the following is noted: after intravenous (iv) administration; cited from earlier work.
The conditions of series [2]: animal studies; cited from earlier work.
For series [3] the following is noted: in vivo; cited from earlier work.
The conditions of series [4]: doses up to 15 μg/kg, healthy volunteers; cited from earlier work.
Series [5] addresses T1, neutral endopeptidase (NEP) (Homo sapiens, UniProt P08473).
T1 construct: purchased Enzo Life Sciences GmbH, Lörrach, Germany
Description: Digest of CNP variants by Neutral Endopeptidase in vitro. It is filed as in vitro ADME. The conditions noted are these: recombinant human neutral endopeptidase (NEP), pH 7.4, read-out: half life norm. (converted). The text has this:
Samples were taken at different time intervals. […] The resulting reaction products were assigned using HPLC-MS.

Read-outs that look alike come from different tables or passages of the source. Bridges are numbered along the chain shown (N, C = ends). Where no end group is shown, it is not given here.

T1 sequence (P08473 whole entry): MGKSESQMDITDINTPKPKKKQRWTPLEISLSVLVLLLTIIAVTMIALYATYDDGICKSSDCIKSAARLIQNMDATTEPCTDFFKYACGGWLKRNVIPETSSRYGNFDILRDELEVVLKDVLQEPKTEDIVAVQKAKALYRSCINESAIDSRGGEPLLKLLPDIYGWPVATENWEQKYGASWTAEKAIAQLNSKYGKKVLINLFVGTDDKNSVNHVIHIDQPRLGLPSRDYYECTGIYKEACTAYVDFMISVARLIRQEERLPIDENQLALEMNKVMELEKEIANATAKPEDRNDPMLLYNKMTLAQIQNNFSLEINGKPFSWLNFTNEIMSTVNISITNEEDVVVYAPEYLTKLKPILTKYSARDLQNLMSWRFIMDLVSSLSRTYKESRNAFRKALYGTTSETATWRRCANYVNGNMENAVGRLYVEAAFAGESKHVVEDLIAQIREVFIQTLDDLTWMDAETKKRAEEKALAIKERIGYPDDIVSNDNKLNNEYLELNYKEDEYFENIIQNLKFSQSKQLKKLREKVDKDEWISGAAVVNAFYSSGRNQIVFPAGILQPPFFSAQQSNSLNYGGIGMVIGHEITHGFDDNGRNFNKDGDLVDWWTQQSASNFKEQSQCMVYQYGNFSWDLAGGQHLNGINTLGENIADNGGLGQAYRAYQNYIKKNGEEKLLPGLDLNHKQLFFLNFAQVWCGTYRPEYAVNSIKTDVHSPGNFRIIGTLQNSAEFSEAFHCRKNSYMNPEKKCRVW

One may read the half-life as the time in which the quantity being followed falls by half. For the molecule “CNP: C-type natriuretic peptide, as discussed in the background”, in series [1], the half-life is recorded as 2 min.
In the case of “BMN-111: modified recombinant human C-type Natriuretic Peptide where 17 amino acids have been added to form a 39 amino acid CNP pharmacological analog (PGQEHPNARKYKGANKKGLSKGCFGLKLDRIGSMSGLGC; disulfide 23-39; chains of the INN, looked up)”, the immunogenicity entry in series [2] was “immunological response”. Moreover, the half-life in series [3] was 20 min. Moreover, the cardiovascular effect result in series [4] was “mild hypotension”.
In the case of `CC[C@H](C)[C@@H]1NC(=O)[C@H](CCCNC(=N)N)NC(=O)[C@H](CC(=O)O)NC(=O)[C@H](CC(C)C)NC(=O)[C@H](CCCCN)NC(=O)[C@H](CC(C)C)NC(=O)CNC(=O)[C@H](Cc2ccccc2)NC(=O)[C@@H](NC(=O)CNC(=O)[C@H](CCCCN)NC(=O)[C@H](CO)NC(=O)[C@H](CC(C)C)NC(=O)CN)CSSC[C@@H](C(=O)O)NC(=O)CNC(=O)[C@H](CC(C)C)NC(=O)CNC(=O)[C@H](CO)NC(=O)[C@H](CCSC)NC(=O)[C@H](CO)NC(=O)CNC1=O` [CNP-22], the half-life at 100 μg CNP equivalents/mL in series [5] is 19.2 min.

The record behind these values is patent US20210069339A1, “CNP PRODRUGS” (ASCENDIS PHARMA GROWTH DISORDERS A/S, priority 2015, published 2021).
